Measured values: patent US8450280B2, “Activation of peptide prodrugs by hK2” (GenbSpera, Inc., priority 1999, dated 2013)
Non-standard residues stand in square brackets, D forms with d. No end group written: not given here.

Legend:
hK2 = target: T1, hK2 (Homo sapiens, UniProt P20151); test: Hydrolysis of hK2 substrates by hK2; format: biochemical; settings: hK2 1 μg/ml, 50 mM Tris, 0.1 M NaCl, pH 7.8
T1 construct: made in house
Method: (§1) Hydrolyses of particular hK2 substrates were carried out at a hK2 concentrations of 1 μg/ml in 50 mM Tris buffer, with 0.1 M NaCl, at pH 7.8. Serum hydrolysis measurements were carried out in 50% fresh human serum in 50 mM Tris buffer, with 0.1 M NaCl, at pH 7.8. The single letter amino acid code was used to designate the peptide sequences used for Table 4. The units FU are arbitrary fluorescence units. The entries “U.D.” were for measurements of less than 0.01 FU/hour.

[1] = Serum hydrolysis of hK2 substrates; format: in vitro ADME; settings: 50% fresh human serum in 50 mM Tris, 0.1 M NaCl, pH 7.8
Method: as §1

T1 sequence (P20151 25-261): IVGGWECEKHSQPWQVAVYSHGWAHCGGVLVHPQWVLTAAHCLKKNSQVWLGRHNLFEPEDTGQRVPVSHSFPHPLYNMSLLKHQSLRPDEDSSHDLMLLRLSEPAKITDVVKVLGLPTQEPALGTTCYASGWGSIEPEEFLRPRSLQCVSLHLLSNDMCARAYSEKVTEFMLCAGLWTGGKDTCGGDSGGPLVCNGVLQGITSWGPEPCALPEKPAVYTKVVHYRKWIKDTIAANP

| Substance | hK2 Hydrolysis Rate (hK2; Table 4) [FU/hr/m] | Serum Hydrolysis Rate ([1]; Table 4) | hK2 Hydrolysis Rate (hK2; Table 5) [FU/hr/m] | Serum Hydrolysis Rate ([1]; Table 5) |
| --- | --- | --- | --- | --- |
| SEQ ID NO: 67: hK2 substrate peptide, single letter sequence P7-P′1 (GGGKARRL; listed as Homo sapiens) | 4784.22 | 0.03 FU/hr |  |  |
| SEQ ID NO: 109: hK2 substrate peptide, single letter sequence P6-P′1 (GGKAKRL; listed as Homo sapiens) |  |  | 1788.9 | 0.14 FU/hr |
| SEQ ID NO: 99: hK2 substrate peptide, single letter sequence P7-P′1 (GHEQKRRS; listed as Homo sapiens) |  |  | 2638.5 | UD (The entries “U.D.” were for measurements of less than 0.01 FU/hour) |
| SEQ ID NO: 117: hK2 substrate peptide, single letter sequence P6-P′1 (GGKARHL; listed as Homo sapiens) |  |  | 939.3 | UD (The entries “U.D.” were for measurements of less than 0.01 FU/hour) |
| SEQ ID NO: 85: hK2 substrate peptide, single letter sequence P7-P′1 (GKDVSGHL; listed as Homo sapiens) | 67.55 | 0.05 FU/hr |  |  |
| SEQ ID NO: 106: hK2 substrate peptide, single letter sequence P6-P′1 (GGKQRRL; listed as Homo sapiens) |  |  | 2171.2 | 0.02 FU/hr |
| SEQ ID NO: 98: hK2 substrate peptide, single letter sequence P6-P′1 (GGAKRRL; listed as Homo sapiens) |  |  | 2773.0 | 0.02 FU/hr |
| SEQ ID NO: 72: hK2 substrate peptide, single letter sequence P7-P′1 (GKDVSRRL; listed as Homo sapiens) | 2316.12 | 0.08 FU/hr |  |  |
| SEQ ID NO: 90: hK2 substrate peptide, single letter sequence P7-P′1 (GPAHQDHL; listed as Homo sapiens) | 48.06 | 0.00 FU/hr |  |  |
| SEQ ID NO: 110: hK2 substrate peptide, single letter sequence P7-P′1, dL at P′1 (GHEQKRR[dL]; listed as Homo sapiens) |  |  | 1690.9 | 0.15 FU/hr |
| SEQ ID NO: 87: hK2 substrate peptide, single letter sequence P7-P′1 (GSNTEKHL; listed as Homo sapiens) | 80.54 | 0.03 FU/hr |  |  |
| SEQ ID NO: 92: hK2 substrate peptide, single letter sequence P7-P′1 (GSQNQVHL; listed as Homo sapiens) | 32.48 | 0.03 FU/hr |  |  |
| SEQ ID NO: 123: hK2 substrate peptide, single letter sequence P6-P′1, dR at P2 and P1 (GGKA[dR][dR]L; listed as Homo sapiens) |  |  | 16.5 | UD (The entries “U.D.” were for measurements of less than 0.01 FU/hour) |
| SEQ ID NO: 96: hK2 substrate peptide, single letter sequence P6-P′1 (GGQKRRL; listed as Homo sapiens) |  |  | 3267.4 | 0.02 FU/hr |
| SEQ ID NO: 115: hK2 substrate peptide, single letter sequence P6-P′1 (GGKANRL; listed as Homo sapiens) |  |  | 1113.9 | 0.01 FU/hr |
| SEQ ID NO: 112: hK2 substrate peptide, single letter sequence P6-P′1 (GGKARKL; listed as Homo sapiens) |  |  | 1602.4 | UD (The entries “U.D.” were for measurements of less than 0.01 FU/hour) |
| SEQ ID NO: 113: hK2 substrate peptide, single letter sequence P7-P′1 (GHEQKRRE; listed as Homo sapiens) |  |  | 1473.8 | UD (The entries “U.D.” were for measurements of less than 0.01 FU/hour) |
| SEQ ID NO: 75: hK2 substrate peptide, single letter sequence P7-P′1 (GSYPSSRL; listed as Homo sapiens) | 1456.18 | 0.06 FU/hr |  |  |
| SEQ ID NO: 120: hK2 substrate peptide, single letter sequence P6-P′1 (GGKAKKL; listed as Homo sapiens) |  |  | 77.9 | UD (The entries “U.D.” were for measurements of less than 0.01 FU/hour) |
| SEQ ID NO: 97: hK2 substrate peptide, single letter sequence P7-P′1 (GHEQKRRA; listed as Homo sapiens) |  |  | 3051.5 | 0.06 FU/hr |
| SEQ ID NO: 108: hK2 substrate peptide, single letter sequence P7-P′1 (GHEQARRL; listed as Homo sapiens) |  |  | 1956.4 | 0.14 FU/hr |
| SEQ ID NO: 100: hK2 substrate peptide, single letter sequence P6-P′1 (GGKKRRL; listed as Homo sapiens) |  |  | 2583.0 | UD (The entries “U.D.” were for measurements of less than 0.01 FU/hour) |
| SEQ ID NO: 76: hK2 substrate peptide, single letter sequence P7-P′1 (GHEQKGRL; listed as Homo sapiens) | 650.80 | 0.04 FU/hr |  |  |
| SEQ ID NO: 101: hK2 substrate peptide, single letter sequence P6-P′1 (GGHKRRL; listed as Homo sapiens) |  |  | 2428.4 | UD (The entries “U.D.” were for measurements of less than 0.01 FU/hour) |
| SEQ ID NO: 94: hK2 substrate peptide, single letter sequence P6-P′1 (GGKSRRL; listed as Homo sapiens) |  |  | 3439.7 | 0.03 FU/hr |
| SEQ ID NO: 86: hK2 substrate peptide, single letter sequence P7-P′1 (GGGKAHHL; listed as Homo sapiens) | 70.15 | 0.05 FU/hr |  |  |
| SEQ ID NO: 107: hK2 substrate peptide, single letter sequence P6-P′1 (GGKHRRL; listed as Homo sapiens) |  |  | 2079.2 | UD (The entries “U.D.” were for measurements of less than 0.01 FU/hour) |
| SEQ ID NO: 89: hK2 substrate peptide, single letter sequence P7-P′1 (GHEQKGHL; listed as Homo sapiens) | 1.30 | UD (The entries “U.D.” were for measurements of less than 0.01 FU/hour) |  |  |
| SEQ ID NO: 119: hK2 substrate peptide, single letter sequence P6-P′1, dR at P2 (GGKA[dR]RL; listed as Homo sapiens) |  |  | 494.4 | 0.06 FU/hr |
